The nanobody polyreactivity screen of Harvey et al. (2022)

Assay: yeast display, Sf9 membrane polyspecificity reagent, FACS + sequencing; frameworks hold sequencing errors
Summary of the method: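 A synthetic nanobody library was expressed on Saccharomyces cerevisiae BJ5465 by galactose induction for 36–48 hours. The library was stained for 1 hour at 4 °C with 10% biotinylated, detergent-solubilized Sf9 membrane reagent and enriched with streptavidin microbeads before FACS. Low and high (top ~1%) gates were set on anti-HA fluorescence for expression and streptavidin fluorescence for reagent binding, and each polyreactivity label reflects the gate of origin.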

Sequence | polyreactivity (PSR sort gate)
QVQLVESGGGLVQAGGSLRLSCAASGSTFYPNAMGWYRQAPGKERELVAAITSGGSTNYADSVKGRFTISRDNAKNTVYLQMNSLKPEDTAVYYCAAVGKYRIRSDYWGQGTQVTVSS | low polyreactivity
QVQLVESGGGLVQAGGSLRLSCDASGITFASYAMGWYRQAPGKERELVAAISWGGSRTYYADSVKGRFTISRDNAKNTVYFQMNSLKPVDTAVYYCNAHTRYGPDYSYYYWGQGTQVTVSS | high polyreactivity
QVQLVESGGGLVQAGGRLRLSCAASGSTFVRNAMGWYRQAPGKERELVAAITGTGDSTYYADSVKGRFTISRDNAKNTVYLQMNSLKPEDTAGYYCDANSDAYRYWYDYWGQGTQVTVSS | low polyreactivity
QVQLVESGGGLVKAGGSLRLSCAASGSTIGGNAMVWYRQAPGKERELVASITRSGGSTYYADSVKGRFTISRDNAKNNVYLQMNSLKPEDSAVYYCAAGKWYRSPWKYDYWGQVTQVTVSS | low polyreactivity
QVQLVESGGGLVQAGGSLRLSCAASGRIFKYNAMGWYRQAPGKERELVAAISGRGVSTYYADSVKGRFTISRDNAKNTVYLQMNSLKPEDTAVYYCAAETVHGSADFDYWGQGTKVTVSS | low polyreactivity
QVQLVESGGGLVQAGGSLRLSCAASGITFYGYAMGWYRQAPGKERELVASISYGGGSTYYADSVKGRFTISRDNAKNTVYFQLNSLKPEDTAVYYCAAQAATYYSGYYYWGQGTQVTVSS | high polyreactivity
QVQLVESGGGLVQAGGSLRLSWAASGITFDDYAMGWYRPAPGKERELVAAITWSGDSTYYADSVKGRFTISRDNAKNTVYLQMNSLKPEDTAVYYCAAVSYYWGQGTQVTVSS | high polyreactivity
QVQLVESGGGLVQAGGSLRLSCAASGSIFSYYAMGWYRQAPGKERELVAAISSRGGSTYYADSVKGRFTISRDNAKKTVYLQMNSLKPEDTAVYYCAADWTSWFGVTYDYWGQGTQVTVSS | high polyreactivity
QVQLVESGGGLVQAGGSLRLSCAASGRIFYTYAMGWYRQSPGKERELVAAISWGGGRTYYADSVKGRFTISRDNAKNTVYLQMNSLKPEDTAVYYCNAVSLKFTRKYDYWGQGTQVTVSS | high polyreactivity
QVELVESGGGLVQAGGSLRLSCAASGLTCVSYAMGWYRQAPGKERELVAAISRSGGSTYYADSVKGRFTISRDNAKNTVYLQMNSLKPVDTAVYYGNAYSYVDFCAVYRYDYWGQGTQLTVSS | high polyreactivity
QVQLVESGGGLVQAGGSLRLSCAASGLTFRAYAMGWYRQAPGKERELVAAITWSGGSTYYADSVKGRFTISRDNAKNTVYLQMNSLKPEDTAVYYCTAVLRAGYWYYSHGYDYWGQGTQVTVSS | low polyreactivity
QVQLVESGRGLVQAGGSLRLSCAASGIIFVKYAMGWYRQAPGKERELVAAISTRGGSTYYADSVKGRFTISRDNAKNTVYLQMNSLNPEDTAVYYCADDATRKSQLPNTVPYDYWGQGTQVTVSS | high polyreactivity
QVQLVESGGGLVQAGGSLRLSCAASGNILATNCMGWYRQAPGMERELVAAITFSGDTTYYADSVKGRFTISRDNAKNTVYLQMNSLKPEDTAVYYCNAVSFIVNGGYDGDYWGQGTQVTVSS | low polyreactivity
QVQLVESGGGLVQAGGSLRLSCAASGSTFSSNAMGWYRQAPGKERELVAAINRTGNTYYADSVKGRFTISRDNEKNTVYLQMNSLKPEDTAVYYCNTDLNLYRGGGYWGQGTQVTVSS | low polyreactivity
QVQLVESGGGLVQAGGSLRLSCAASGRTFFMYAMGRYRQAPGKERELVAAISWGGVSTYYADSVKGRFTISRDNAKNTVYLQMNSLKPEDTAVYYCNAEYYYPRGRYWYDYWGQGTQVTVSS | high polyreactivity
QVQLVESGGGLVQAGGSLRLSCAASGAIFPSYVMGWYRPAPGKERELVAAITKSTGTTYYADSVKGRFTISRDNAKNTVYLQMNSLKPEDTAVYYCAASGSWSTNTAIYKFYYWGQGTQVTVSS | low polyreactivity
QVQLVESVGGLVQAGGSLRLSCAASGRTFVGNTMGWYRQAPGKERELVAAISGSGSRTYYADSVKGRFTISRDNAKNTVYLQMNSLKPEDTGVYYCASQGNYWGQGTQVTVSS | high polyreactivity
QVQLVESGGGLVQAGGRLRLSCAASGSTFGLNAMGRYRHAPGKEREFVASINFNDGSTYYADSVKGRFTISRDNAKNTVYLRMNSLKPEDTAVYYCAVELWWKWPFYYWGQGTQVTVSS | high polyreactivity
QVQIVESGRGLFQAGGSLRISCPASGYIFLANAMGLYRQAPGKERELVAAITSGGGGTYYADSVKARFTISGDNAKNPVYLLMNTLKPEDTAVYHCAADHGRDGSSIEYWGHGTQVTVSS | low polyreactivity
QVQLVESGGGLVQAGGSLRLSCAASGLIFRKNAMGWYRQAPGKEMELVAAISSSDSSTYADSVKGRCTISRDNAKNTVYLQMNSLKPEDTAVYYCAAASYNWLDWVTREYWGQGTQVTVSS | low polyreactivity
QVQLVESVGGLVQAGGSLRLSCAASGRPSNRYAMGWYRQAPGKERELVAAISGRGGSTYYADSVKGRFTISRDNAKNTVYLQMNSLKPEDTAVYYCAKQWYVAKISYDYWGQGTQVTVSS | high polyreactivity
QVQLVESGGGLVQAGGSLRLSCAASGIIFRWYTMGWYRQAPGKERELVAAISSGGSTYYADSVKGRFTISRDNAKNTVYLQMNSLKPEDTAVYYCAARYITTYAYGYWGQGTQVTVSS | high polyreactivity

Sequence | polyreactivity (PSR sort gate)
QVQLVESVGGLVQAGGSLRLSCAASGSITVANAMGWYSQAPGKESELVAAITDSGDDTYYADSVKGRFTNSRDNAKNTVYLLMNSLKAEDTAVYYCAVEAWSVPPYDYWGQGTQVTVSS | low polyreactivity
QVQLVESGGGLVQAGGSLRLSSAASGRIFYGYTMGWYRQAPGKERELVAAITQSSGSTYYADSVKGRFTISRDNAKNTVYLQMNSLKPEDTAVYYCARDPGRRYSYTYDYWGQGTQVTVSS | low polyreactivity
QVQLVESGGGLVQAGGSLRLSCAASGFNFDANPLGWYRQAAGKERELVAAISWSGGSTYYADSVKGRFTISRDYANNSVYLQMNTLKPEDTAVYYCAADILGYSYEYWGQGTQVTVSS | high polyreactivity
QVQLVESGGGLVQAGGSLRLSSAASGSTFLYYVMGWYRQARGKERELVAGITSRGASTYYADSVKGRFTFSRDNAKNTVYLQMNSLKPEDTAVYDCAKPGFTYPGRYNYWGQGTQVTVSS | high polyreactivity
QDQLVDSGAGLLQAGGSLRLSCAASGFTFYGYAMGWYRQAPGKERELVASISWSGGTTYYADSVKGRFTISRDNAKNTVYLQMNSLKPEDTAVYYCNAVRYRYGVFPYYYWGQGTQVTESS | high polyreactivity
QVQLVESGGGLVQAGGSIRLSCAASGYTFVTNAMGWYRPAPGKERELVAAITTVGSTNYADSGKGRFTISRDNAKNTVYLQMNSLKPEDTAVYYCNANWYEWYGWGQGTQVTVSS | low polyreactivity
QVQLVESGGCLVQAGGSLRLSCAASGRTLDFNVLGWYRPAPGQERELVAAITWSGGSTYYADSVKGRFTISRDNAQNTVYLQMNSLKQEDTAGYYCAAKALYAYRLYDYSGQGTQVTVSS | high polyreactivity
QVQLVESGGGLVQAGGSLRLSCAASGFIFGRYARGWYRQAPVKERELVAAINWSGGSTYYADSVKGRFTISRDNAKNTVYLQMNSLKPEDTAVYYCAARTSRRDGGGSYDYWGQGTQVTVSS | high polyreactivity
QVQLVESGGGLVQAGGSLRLSCAASGRIYWNTMGWYRQAPGKERELVASISTGGGRTYYADSVKGRFTISRDNAKNTVYLQMNSLKPEDTAVYYCAVRSYGHGFDYWGQGTQVTVSS | high polyreactivity
QVQLVESGGGLVQAGGSLRLSCAASGRIFISNAKGWYIQAPGKERELVAAITWIGDRTYYADSVKGRFTISRDNAKITVYLEMNSLKPEDTAVYYCNRVTSRVSGRYSYEYWGQVTQVTVSS | high polyreactivity
QVQLVESGGGLVQAGGSLRLSCAASGFIFRVYTMVWYRQAPGKERELVAAISYRGGRTYYADSVKGRFTISRDNAKNTVFLQMNSLKPEDTAVYYCAADRVNREFDYWGQGTQVTVSS | high polyreactivity
QVQLVESGGVLVQAGGSLRLSCAASGFIFKKYAMGWYRQEPGKEMELVAAITIGGSTYYADSVKGRFTISRDNAKNTVYLQMNSLKPEDTAVYYCAAVQGKVRGGYYWGQGTQVTVSS | high polyreactivity
QVQLVESGGGLVQAGGSLRLSCADSGRTFGPNAMGWYRQAPGKERELVAAITGGGSTYYADSVKGRFTISRDNAKNTVYLQMNSLKPEDTAVYYCAAVWTYWYYGDDYWGQGTQVTVSS | low polyreactivity
QVHLVESGGGLVQAGGSLRLSCAASGFTILTYGMGWYRQAPGKERELVAAIRWSGGRTYYADSVKGRFTISRDNAKNTVYLQMNSLKPEDTAVYYCAARYKFSTIRGVDYWGQGTQVTVSS | high polyreactivity
QVQLLESGGGLVQAGGSLRLSCASSGRTFVRYGMGWSRQAPGKERELVAAITGSGSRTYYADSVKGRFTISRDNAKNTVYLQMNSLIPKDTAVYYCAGRGQGGAGDPRYPVYYWGQGTQVTVSS | high polyreactivity
QVQLVESGGGLVQAGGSLRLSCAASGLIFYRYAMGWYRQAPGKERELVAAISARGSSTYYADSVKGRFTISRDNAKNTVYLQMNSLKPEDTAVYYCAAGATGTSYYGGDYWGQGTQVTVSS | high polyreactivity
QVQLVESGGGLVQAGGSLRLSCAASGSIFVTYALGWYRQAPGKERELVAVLTWGGGSTYYADSVKGRFTISRDNAKNTVYLQMNSLKPEDTAVYYCAKDSYYYRRDVTVDYWGQGTQVTVSS | low polyreactivity
QVQLVESGGGLVQAGGSLRLSCAASGSTLGINAMGWYRQAPGKERELVAAITWNGGSTYYADSVKGRFTISRDNAKNTVYLQMNSLKPEDTAVYYCAARTYSSRYYRTREGFDYYYWGQGTQVTVSS | high polyreactivity
QVQLVESGGGLVQAGGSLRLSCAASGFIFLHYAMGWYRQAPGKERELVAAISSSGGRTYYADSVKGRFSISRDNAKNTVYLQMNSLKPEDTAVYYCAAEAYPWYVPYDYWGQGTQVTVSS | high polyreactivity
QVQLVESGGGLVQAGGSLRLSCAASGSTFTINVMGWYRQAPGKERELVAAINGGGRTNYADSVKGRFTISRDNAKNTVYLQMNSLKPEDTAVYYCNARYGNESQGWEDYWGQGTKVTVSS | low polyreactivity
QVQLVESGGGLVQAGGSLRLSSAASGSTFRKNAMGWYRQAPGKERELVASISISGGRTNYADSVKGRFTISRDNAKNTVYLQMNSLKPEDTAVYYCAKQVKSYRTRYTFDYWGQGTQVTVSS | high polyreactivity
